The values below come from US10487337B2, “Methods for monocot plant improvement” (Agresearch Limited, priority 2014, dated 2019).

Test [1] concerns ryegrass plants. Kind of test: Leaf biomass analysis of grass transformants. Conditions: observed leaf growth, approximately 6 weeks. Format: in vivo. As to the method: An equal number (typically 4-10) of tillers were taken from WT and ryegrass plants transformed with Arabidopsis PPD under one of two green tissue promoters. Tillers were planted into plastic grow bags containing potting mix and pruned to be of equal height. […] The increase in leaf/shoot biomass can be quantified removing the attached above ground portion (leaves and shoots) and drying them at 65° C. for 48 hr then weighing the dry weights.
An equal number (typically 4-10) of tillers were taken from WT and ryegrass plants transformed with Arabidopsis PPD under a constitutive promoter. Tillers were planted into plastic grow bags containing potting mix and pruned to be of equal height. […] The increase in leaf/shoot biomass was quantified removing the attached above ground portion (leaves and shoots) and drying them at 65° C. for 48 hr then weighing the dry weights (Table 2).

Test [2] has as its system ryegrass plants. As to the kind of experiment: Root biomass analysis of grass transformants. The format is in vivo. Conditions: root growth beyond the grow bag, approximately 6 weeks. As to the method:
An equal number (typically 4-10) of tillers were taken from WT and ryegrass plants transformed with Arabidopsis PPD under one of three root promoters. Tillers were planted into plastic grow bags containing potting mix and pruned to be of equal height. […] The increase in root biomass was quantified removing the attached above ground portion (leaves and shoots) and drying the roots at 65° C. for 48 hr then weighing the dry weights (Tables 3 and 4)
An equal number (typically 4-10) of tillers were taken from WT and ryegrass plants transformed with Arabidopsis PPD under a constitutive promoter. Tillers were planted into plastic grow bags containing potting mix and pruned to be of equal height. […] The increase in root biomass was quantified removing the attached above ground portion (leaves and shoots) and drying the roots at 65° C. for 48 hr then weighing the dry weights (Table 5).

Test [3] deals with T1, DELLA (RGA1) (Arabidopsis thaliana, UniProt Q9SLH3).
T1 construct: expressed in transfected cells; host or cells: yeast strain MaV203
T1 sequence (Q9SLH3 with tags, fused parts or gaps): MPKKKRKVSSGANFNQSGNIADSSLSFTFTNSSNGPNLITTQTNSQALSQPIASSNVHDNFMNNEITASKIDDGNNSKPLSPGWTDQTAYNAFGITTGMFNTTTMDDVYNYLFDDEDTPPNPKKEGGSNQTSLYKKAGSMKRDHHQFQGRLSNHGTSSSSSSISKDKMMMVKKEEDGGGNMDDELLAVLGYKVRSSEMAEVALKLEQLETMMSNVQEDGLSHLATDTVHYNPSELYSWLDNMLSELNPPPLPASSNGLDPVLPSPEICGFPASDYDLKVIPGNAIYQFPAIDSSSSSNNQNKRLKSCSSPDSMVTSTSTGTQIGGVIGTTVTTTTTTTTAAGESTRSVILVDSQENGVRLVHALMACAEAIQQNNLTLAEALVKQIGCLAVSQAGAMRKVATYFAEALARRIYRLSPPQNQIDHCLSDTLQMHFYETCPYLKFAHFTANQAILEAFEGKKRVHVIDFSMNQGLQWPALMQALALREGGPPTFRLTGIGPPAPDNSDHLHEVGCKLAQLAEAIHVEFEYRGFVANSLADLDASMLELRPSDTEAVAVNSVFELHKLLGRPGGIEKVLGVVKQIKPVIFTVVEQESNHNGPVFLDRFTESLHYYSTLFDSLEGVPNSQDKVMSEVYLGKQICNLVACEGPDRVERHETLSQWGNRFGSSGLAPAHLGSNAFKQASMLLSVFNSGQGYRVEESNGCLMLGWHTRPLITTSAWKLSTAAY
Kind of test: Yeast two-hybrid (Y2H) analysis between PPD and DELLA (RGA1). Format: binding. Conditions: PPD1-DBD as bait, 15 mM 3AT. From the text: The ProQuest two-hybrid system (Invitrogen) was used to analyse interactions between PPD1, and RGA1. Full length coding sequences of PPD1, together with truncation or deletion derivatives of PPD1 (PPD1Δppd, PPD1Δtify, and PPD1Δjas*) (FIG. 5), were Gateway sub-cloned into pDEST32 (N-terminal GAL4DBD) or pDEST22 (N-terminal GAL4AD). When translated these generated the following peptide sequences: 55, 65, 66, 67, 68, 7169, which are PPD1-DBD, RGA1, RGA1-AD, PPD1-ppd-DBD, PPD1-tify-DBD, PP1-jas*-DBD respectively.
Combinations of bait and prey constructs were used to co-transform yeast strain MaV203 (Invitrogen), with selection on synthetic dropout (SD) SD/-Leu/-Trp agar plates. Transformed strains were tested for interactions using 10 μl droplets of 1 in 10 and 1 in 100 dilutions on SD/-Leu/-Trp/-His plates with different concentrations of 3-aminotriazol (3-AT) (Sigma). The PPD1-RGA1 interaction was tested with PPD1-DBD used as bait. Transformed yeast was spotted as a ten-fold dilution on control medium (−2) or selective medium (−3) with 15 mM 3AT. Controls were empty vectors, DBD, GAL4 DNA binding domain, AD, GAL4 activation domain (FIG. 5).

B1: PPD1: PEAPOD 1 protein of Arabidopsis thaliana, SEQ ID NO: 1 (protein, listed as Arabidopsis thaliana)
chain: MDVGVSPAKSILAKPLKLLTEEDISQLTREDCRKFLKDKGMRRPSWNKSQAIQQVLSLKALYEPGDDSGAGIFRKILVSQPVNPPRVTTTLIEPSNELEACGRVSYPEDNGACHRMDSPRSAEFSGGSGHFVSEKDGHKTTISPRSPAETSELVGQMTIFYSGKVNVYDGIPPEKARSIMHFAANPIDLPENGIFASSRMISKLISKEKMMELPQKGLEKANSSRDSGMEGQANRKVSLQRYREKRKDRKFSKAKKCPGVASSSLEMFLNCQPRMKAAYSQNLGCTGSPLHSQSPESQTKSPNLSVDLNSEGI
In the case of B1, the “leaf biomass/growth/length/branching compared to WT plants” value in test [1] (constitutive promoter) and in test [1] (green tissue promoter) was “increase in leaf biomass/growth/length/branching” each time. For the same molecule, the “root biomass/growth/length/branching compared to WT plants” value in test [2] (constitutive promoter) and in test [2] (root promoter) was “increase in root biomass/growth/length/branching” in each case. Further, the “interaction with DELLA (RGA1)” value in test [3] was “can directly bind to DELLA”.
